Laboratory results published in PMC9723961 (Journal for Immunotherapy of Cancer, 2022).

B1: Mupadolimab (antibody, V domains shown)
VH: QVQLVQSGAEVEKPGASVKVSCKASGYTFTSYWITWVRQAPGQGLEWMGDIYPGSGNTNYNEKFKTRVTITADKSTSTAYMELSSLRSEDTAVYYCAKEGGLTTEDYALDYWGQGTLVTVSS
VL: EIVLTQSPATLSLSPGERATLSCRASKNVSTSGYSYMHWYQQKPGQAPRLLIYLASNLESGIPPRFSGSGYGTDFTLTINNIESEDAAYYFCQHSRELPFTFGQGTKVEIK
B2: Recombinant CD73-His (enzyme, human, UniProt P21589 27-549, looked up)
chain: WELTILHTNDVHSRLEQTSEDSSKCVNASRCMGGVARLFTKVQQIRRAEPNVLLLDAGDQYQGTIWFTVYKGAEVAHFMNALRYDAMALGNHEFDNGVEGLIEPLLKEAKFPILSANIKAKGPLASQISGLYLPYKVLPVGDEVVGIVGYTSKETPFLSNPGTNLVFEDEITALQPEVDKLKTLNVNKIIALGHSGFEMDKLIAQKVRGVDVVVGGHSNTFLYTGNPPSKEVPAGKYPFIVTSDDGRKVPVVQAYAFGKYLGYLKIEFDERGNVISSHGNPILLNSSIPEDPSIKADINKWRIKLDNYSTQELGKTIVYLDGSSQSCRFRECNMGNLICDAMINNNLRHTDEMFWNHVSMCILNGGGIRSPIDERNNGTITWENLAAVLPFGGTFDLVQLKGSTLKKAFEHSVHRYGQSTGEFLQVGGIHVVYDLSRKPGDRVVKLDVLCTKCRVPSYDPLKMDEVYKVILPNFLANGGDGFQMIKDELLRHDSGDQDINVVSTYISKMKVIYPAVEGRIKFS

Tests used:
[1] = target: T1, Recombinant CD73-His (human, UniProt P21589); test: cryo-EM structure
[2] = target: T1, Recombinant CD73-His; test: BLI
[3] = target: the molecule itself; test: cryo-EM structure

Binder | stoichiometry N [1] | Kd [2] [pM] | binding result [3]
B1 | 2 antibodies per CD73 homodimer | 200 | 
B2 |  |  | binds
